Numbering of substitutions follows the chain as printed. In names and notes the source's numbering stands. One block for each binder: values may come before it.
Target: T1, TNFR1 (Homo sapiens, UniProt P19438)
T1 chain: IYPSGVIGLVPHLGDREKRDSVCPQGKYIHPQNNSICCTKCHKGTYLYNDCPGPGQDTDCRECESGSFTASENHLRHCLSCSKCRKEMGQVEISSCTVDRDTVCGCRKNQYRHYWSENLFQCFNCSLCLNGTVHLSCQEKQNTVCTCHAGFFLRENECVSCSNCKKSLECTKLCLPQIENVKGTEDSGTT
Test: yeast display SC50

- apparent Kd (screen): 1.69 nM
B2: R65S (designed binder)
chain: SMEEEVEKAAKEYEKKKKEAIEKHLEKLKAKDKEAAERFLKELEEAAKEYAKDEAKTMSEEEAKSRAKKYKEKVLLSELSEEEQKEIKEAEEKLVRTILKYVEEAAK

- apparent Kd (screen): 2.05 nM
B5: S80Y (designed binder)
chain: B2 chain with S65R, S80Y

- apparent Kd (screen): 10.4 nM
B7: E89P (designed binder)
chain: B2 chain with S65R, E89P

- apparent Kd (screen): 0.653 nM
B10: E81Y (designed binder)
chain: B2 chain with S65R, E81Y

- apparent Kd (screen): 0.869 nM
B14: K73M (designed binder)
chain: B2 chain with S65R, K73M

- apparent Kd (screen): 0.718 nM
B15: E86S (designed binder)
chain: B2 chain with S65R, E86S

- apparent Kd (screen): 7.78 nM
B19: Y70C (designed binder)
chain: B2 chain with S65R, Y70C

- apparent Kd (screen): 2.48 nM
B21: R96S (designed binder)
chain: B2 chain with S65R, R96S

- apparent Kd (screen): 0.446 nM
B28: L94T (designed binder)
chain: B2 chain with S65R, L94T

- apparent Kd (screen): 3 nM
B29: V95Y (designed binder)
chain: B2 chain with S65R, V95Y

- apparent Kd (screen): 7.07 nM
B30: A67N (designed binder)
chain: B2 chain with S65R, A67N

- apparent Kd (screen): 3 nM
B31: A105F (designed binder)
chain: B2 chain with S65R, A105F

- apparent Kd (screen): 0.49 nM
B34: A90G (designed binder)
chain: B2 chain with S65R, A90G

- apparent Kd (screen): 7.78 nM
B35: V95R (designed binder)
chain: B2 chain with S65R, V95R

- apparent Kd (screen): 1.86 nM
B37: E82C (designed binder)
chain: B2 chain with S65R, E82C

- apparent Kd (screen): 0.593 nM
B38: E86R (designed binder)
chain: B2 chain with S65R, E86R

- apparent Kd (screen): 12.5 nM
B39: L94S (designed binder)
chain: B2 chain with S65R, L94S

- apparent Kd (screen): 11.4 nM
B42: K71P (designed binder)
chain: B2 chain with S65R, K71P

- apparent Kd (screen): 0.539 nM
B43: E103R (designed binder)
chain: B2 chain with S65R, E103R

The remaining lines, values behind:

B1: S59L (designed binder)
chain: B2 chain with S59L, S65R
- apparent Kd (screen): 1.05 nM

B3: E62A (designed binder)
chain: B2 chain with E62A, S65R
- apparent Kd (screen): 0.446 nM

B4: Y13E (designed binder)
chain: B2 chain with Y13E, S65R
- apparent Kd (screen): 1.54 nM

B6: T57L (designed binder)
chain: B2 chain with T57L, S65R
- apparent Kd (screen): 0.107 nM

B8: E49C (designed binder)
chain: B2 chain with E49C, S65R
- apparent Kd (screen): 13.8 nM

B9: L28A (designed binder)
chain: B2 chain with L28A, S65R
- apparent Kd (screen): 0.718 nM

B11: Y13W (designed binder)
chain: B2 chain with Y13W, S65R
- apparent Kd (screen): 2.73 nM

B12: M58Q (designed binder)
chain: B2 chain with M58Q, S65R
- apparent Kd (screen): 11.4 nM

B13: K18F (designed binder)
chain: B2 chain with K18F, S65R
- apparent Kd (screen): 0.869 nM

B16: E42D (designed binder)
chain: B2 chain with E42D, S65R
- apparent Kd (screen): 2.73 nM

B17: K52S (designed binder)
chain: B2 chain with K52S, S65R
- apparent Kd (screen): 0.446 nM

B18: A51F (designed binder)
chain: B2 chain with A51F, S65R
- apparent Kd (screen): 0.593 nM

B20: K56C (designed binder)
chain: B2 chain with K56C, S65R
- apparent Kd (screen): 10.4 nM

B22: M58R (designed binder)
chain: B2 chain with M58R, S65R
- apparent Kd (screen): 12.5 nM

B23: M2C (designed binder)
chain: B2 chain with M2C, S65R
- apparent Kd (screen): 2.73 nM

B24: A9W (designed binder)
chain: B2 chain with A9W, S65R
- apparent Kd (screen): 3 nM

B25: A9N (designed binder)
chain: B2 chain with A9N, S65R
- apparent Kd (screen): 0.869 nM

B26: K31H (designed binder)
chain: B2 chain with K31H, S65R
- apparent Kd (screen): 0.446 nM

B27: E45P (designed binder)
chain: B2 chain with E45P, S65R
- apparent Kd (screen): 7.78 nM

B32: E45F (designed binder)
chain: B2 chain with E45F, S65R
- apparent Kd (screen): 4.39 nM

B33: E44Q (designed binder)
chain: B2 chain with E44Q, S65R
- apparent Kd (screen): 0.653 nM

B36: E49W (designed binder)
chain: B2 chain with E49W, S65R
- apparent Kd (screen): 16.7 nM

B40: K23H (designed binder)
chain: B2 chain with K23H, S65R
- apparent Kd (screen): 0.49 nM

B41: A35F (designed binder)
chain: B2 chain with A35F, S65R
- apparent Kd (screen): 0.956 nM

From paper PMC12416549 (2024)
